Data on one molecule can be found in patent publication US20210139610A1, “COMPOSITIONS AND METHODS FOR MEDIATING EPS” (priority 2018, published 2021).

The test system of test [1] is Non-typeable Haemophilus influenzae biofilms. The experiment in a line: NTHI in vitro biofilm formation, additive present from seeding (LIVE/DEAD, CLSM, COMSTAT). Type of test: cell-based. The following applies: DNase (Pulmozyme) added at seeding. As for the experimental part: FIG. 14: Non-typeable Haemophilus influenzae biofilms were grown for 40 h in supplemented BHI medium containing additives as indicated below each bar in 8 well chambered coverglass slides at 37° C. and 5% CO2. Biofilms were washed, stained with LIVE/DEAD®, fixed, and imaged by CLSM. Biofilm parameters were quantified using COMSTAT software.
Dicyclohexylamine inhibits spermidine synthase via a competitive inhibition mechanism, i.e. through binding to the same site on the protein as the putrescine substrate. Applicants therefore hypothesized that dicyclohexylamine would inhibit NTHi biofilm development. […]

A further test relates to preformed NTHI biofilms. The experiment in a line: Disruption of pre-formed NTHI biofilms (treatment after initial growth; LIVE/DEAD, CLSM, COMSTAT). The class given is cell-based, Non-typeable Haemophilus influenzae. The following applies: DNase (Pulmozyme) added at 24 h. As for the experimental part:
(FIG. 18A) Biofilm growth was initiated then maintained for 24 hrs then treated for 16 hrs with 0 (SBHI Control), 0.1%, 1%, and 5% (w/v) of Phoshocellulose (P11). (FIG. 18B) Biofilm growth was initiated then maintained for 40 hrs in the presence of 0 (sBHI Control), 0.1%, 1%, and 5% (w/v) of (P11). Biofilms were washed with saline and stained with LIVE/DEAD® stain. Images were analyzed by COMSTAT to calculate average thickness and biomass. All images were captured with a 63× objective.
21:65-7. Pulmozyme® was added either at seeding (biofilm prevention) or to pre-formed biofilms (biofilm disruption) (FIG. 6). The resultant biofilms were stained with LIVE/DEAD® and evaluated using CLSM and COMSTAT analysis.
To determine anti-biofilm activity of cation exchange resins on preformed biofilms (i.e. ability to disrupt an extant biofilm), NTHI growth was initiated and maintained for 24 hrs, then treated for 16 hrs with 0 (sBHI Control), 0.1, 1, or 5% (w/v) of P11 phosphocellulose (FIG. 18A). To determine the anti-biofilm activity of cation exchange resins to prevent biofilm formation, NTHI growth was initiated and maintained in the presence of 0 (sBHI Control), 0.1, 1, and 5% w/v of P11 phosphocellulose (FIG. 18B) or 5% (w/v) heparin sepharose (FIG. 19). Biofilms were washed with saline and stained with LIVE/DEAD®, visualized with confocal scanning microscopy (CSLM) and analyzed by COMSTAT to determine average thickness and biomass.

For test [2], the system named is Z-DNA and B-DNA in the NTHI biofilm extracellular matrix. The experiment in a line: Immunofluorescence CLSM for Z-DNA / B-DNA in NTHI biofilms. Type of test: cell-based, Non-typeable Haemophilus influenzae. The following applies: DNase (Pulmozyme; 5 units) at 24 h, read at 40 h. As for the experimental part: FIG. 31: DNase degrades B-DNA, but not Z-DNA, within the biofilm extracellular matrix. DNase (Pulmozyme; 5 units) was added at 24 h after biofilm seeding to in vitro pre-formed NTHI biofilms.
FIG. 37: HMGB1 destabilizes Z-DNA structures in the biofilm extracellular matrix. Non-typeable Haemophilus influenzae biofilms were grown in supplemented BHI media in 8 well chambered coverglass slides at 37° C. and 5% CO2. After 24 h, biofilms were treated as indicated above. After 40 h, biofilms were washed, probed with primary antibodies directed against Z-DNA (light gray dots), a fluorescent secondary antibody, stained with DAPI (gray regions), and visualized via fluorescence microscopy.
FIGS. 50A-50B: Equilibrium shift of B-DNA to Z-DNA conversion alters biofilm formation. NTHI biofilms formed for 24 h were incubated with cerium chloride (CeCl3) or chloroquine for an additional 16 h and were probed with naive or anti-Z-DNA (white) by immunofluorescence CLSM.
FIGS. 51A-51B: Equilibrium shift of B-DNA to Z-DNA conversion alters biofilm formation. NTHI biofilms formed for 24 h were incubated with cerium chloride (CeCl3) (FIG. 51A) or chloroquine (FIG. 51B) for an additional 16 h. Z-DNA was measured by IF and CLSM using anti-Z-DNA and cells were stained with the membrane stain FM4-64. Bars represent the SEM. Statistical significance compared to control was assessed by paired t-tests, *P<0.05, **P<0.01.

For test [3], the system named is Biofilms formed for 24 h by the indicated bacteria (Kp=K. pneumoniae). The experiment in a line: B-DNA / Z-DNA abundance after DNase in 24 h biofilms of the indicated bacteria (ImageJ fluorescence ratio). The following applies: Pulmozyme 40 U/ml for 16 h. Type of test: cell-based. As for the experimental part:
FIGS. 48A-48B: Z-DNA in biofilms forms a nuclease-resistant scaffold. (FIG. 48A) Biofilms formed for 24 h by the indicated bacteria (Kp=K. pneumoniae) were incubated with DNase (Pulmozyme®; 40 U/ml) for an additional 16 h. Biofilms were then probed with anti-B-DNA (dark gray) and anti-Z-DNA (white) antibodies and counterstained with the bacterial cell membrane stain FM4-64™ (not shown). (FIG. 48B) Changes in abundance of B-DNA or Z-DNA were quantified using ImageJ by calculation of the ratio of fluorescence intensity of B-DNA or Z-DNA after DNase addition divided by the fluorescence intensity in the absence of DNase (Control). Fluorescence intensity was normalized to the fluorescence signal of FM4-64™-stained cells. Bars represent the SEM. Statistical significance compared to Control (no DNase, dotted line) was assessed by paired t-tests, *P<0.05; ****P<0.0001.

“Also recorded” adds a separate entry of the source.

B1: DNase: Pulmozyme, a recombinant human DNase used for management of cystic fibrosis patients (protein, UniProt P24855 23-282, looked up)
Deoxyribonuclease-1: LKIAAFNIQTFGETKMSNATLVSYIVQILSRYDIALVQEVRDSHLTAVGKLLDNLNQDAPDTYHYVVSEPLGRNSYKERYLFVYRPDQVSAVDSYYYDDGCEPCGNDTFNREPAIVRFFSRFTEVREFAIVPLHAAPGDAVAEIDALYDVYLDVQEKWGLEDVMLMGDFNAGCSYVRPSQWSSIRLWTSPTFQWLIPDSADTTATPTHCAYDRIVVAGMLLRGAVVPDSALPFNFQAAYGLSDQLAQAISDHYPVEVMLK
Consider B1, for which the “NTHI biofilm prevention (average thickness, biomass)” value in test [1] was “significant reduction in average thickness and biomass of NTHI and UPEC biofilms; also recorded: can prevent formation of”. Moreover, the “NTHI mature biofilm disruption” value with preformed NTHI biofilms is given as “unable to disrupt mature biofilms; also recorded: not disrupt extant biofilms”. Besides, in test [2], the “B-DNA form eDNA in NTHI biofilm matrix” value is on record as “degrades B-DNA form eDNA structures” and the “Z-DNA form eDNA in NTHI biofilm matrix” value is given as “reveals extensive Z-DNA form eDNA”. In addition, in test [3], the “B-DNA abundance after DNase” value is “B-DNA is degraded” and the “Z-DNA abundance after DNase” value was “Z-DNA is resistant”.
